B1: GTGCAC_negctrl_site81 (dsDNA)
DNA 1: TTTATTAGATAACGATAAACGAAAAAAAAAAAATAA
DNA 2: TTATTTTTTTTTTTTCGTTTATCGTTATCTAATAAA
B2: GTGCAC_negctrl_site214 (dsDNA)
DNA 1: ACCCAAGAGAAAAGAGAAAGAAATATGTGTATATTG
DNA 2: CAATATACACATATTTCTTTCTCTTTTCTCTTGGGT
B3: GTGCAC_negctrl_site458 (dsDNA)
DNA 1: ATGTAATTATAAGATTAATATACATAATTATATGTA
DNA 2: TACATATAATTATGTATATTAATCTTATAATTACAT
B4: GTGCAC_negctrl_site108 (dsDNA)
DNA 1: TTGTTTAACTTGTTAAATATAATGTATCTGTGGATA
DNA 2: TATCCACAGATACATTATATTTAACAAGTTAAACAA
B5: GTGCAC_negctrl_site613 (dsDNA)
DNA 1: TACTCAAAAATTAATTAGCATAATATATATAAAAAT
DNA 2: ATTTTTATATATATTATGCTAATTAATTTTTGAGTA
B6: GTGCAC_negctrl_site491 (dsDNA)
DNA 1: TTTTTTATTTTTTACATATTTAGCTCATATTTATAT
DNA 2: ATATAAATATGAGCTAAATATGTAAAAAATAAAAAA
B7: GTGCAC_negctrl_site353 (dsDNA)
DNA 1: GAATATTTATGATGAACTATTAATTAATTTTACATA
DNA 2: TATGTAAAATTAATTAATAGTTCATCATAAATATTC
B8: GTGCAC_negctrl_site660 (dsDNA)
DNA 1: AATTAATTTATTTTATAAATAGTTAGATCGTCATAA
DNA 2: TTATGACGATCTAACTATTTATAAAATAAATTAATT
B9: GTGCAC_negctrl_site728 (dsDNA)
DNA 1: TTTTGTAAAATTAATTTATTATACATATATATTTCT
DNA 2: AGAAATATATATGTATAATAAATTAATTTTACAAAA
B10: GTGCAC_negctrl_site217 (dsDNA)
DNA 1: TGACTTTGTTGAATTTGTCCTCTTAACTCATAATAT
DNA 2: ATATTATGAGTTAAGAGGACAAATTCAACAAAGTCA
B11: GTGCAC_negctrl_site391 (dsDNA)
DNA 1: TTTTTTATTTTAATGTATTATTTTTATGTAATATAT
DNA 2: ATATATTACATAAAAATAATACATTAAAATAAAAAA
B12: GTGCAC_negctrl_site647 (dsDNA)
DNA 1: ATCAGTGATTAGGTTATATATAAAAATGAACTAATA
DNA 2: TATTAGTTCATTTTTATATATAACCTAATCACTGAT
B13: GTGCAC_negctrl_site191 (dsDNA)
DNA 1: TTTTAAATTGGAGTGGGCAGATTGATATTATTCTTC
DNA 2: GAAGAATAATATCAATCTGCCCACTCCAATTTAAAA
B14: GTGCAC_negctrl_site665 (dsDNA)
DNA 1: TTTTAAATCTTATATTCCCCACATAAATAGCTCTCT
DNA 2: AGAGAGCTATTTATGTGGGGAATATAAGATTTAAAA
B15: GTGCAC_negctrl_site170 (dsDNA)
DNA 1: AATATATTTTGATATGAACAATTAATAATTTCAAAT
DNA 2: ATTTGAAATTATTAATTGTTCATATCAAAATATATT
B16: GTGCAC_negctrl_site670 (dsDNA)
DNA 1: TAAGACTATTAAAAAATTGAGTACATGAACTGTTCA
DNA 2: TGAACAGTTCATGTACTCAATTTTTTAATAGTCTTA

The binders below were run against T1, SIP2 D1 (Plasmodium falciparum, UniProt C6KSN9 177-235) (assay: gcPBM; about 25 ug protein; PBS, 1% milk, 0.2 mg/ml BSA, salmon testes DNA, 0.03% Triton X-100). Conditions: tags: N-terminal GST (pGEX-4T-1), kept; label: surface-attached array probe.
T1 sequence: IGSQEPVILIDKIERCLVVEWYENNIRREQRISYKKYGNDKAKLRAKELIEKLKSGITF

Binder | binding signal
B1 | 6.8 ln median PBM intensity, better of two orientations
B2 | 6.82 ln median PBM intensity, better of two orientations
B3 | 6.75 ln median PBM intensity, better of two orientations
B4 | 6.74 ln median PBM intensity, better of two orientations
B5 | 6.83 ln median PBM intensity, better of two orientations
B6 | 6.81 ln median PBM intensity, better of two orientations
B7 | 6.72 ln median PBM intensity, better of two orientations
B8 | 6.78 ln median PBM intensity, better of two orientations
B9 | 6.83 ln median PBM intensity, better of two orientations
B10 | 6.72 ln median PBM intensity, better of two orientations
B11 | 6.72 ln median PBM intensity, better of two orientations
B12 | 6.8 ln median PBM intensity, better of two orientations
B13 | 6.81 ln median PBM intensity, better of two orientations
B14 | 6.72 ln median PBM intensity, better of two orientations
B15 | 6.86 ln median PBM intensity, better of two orientations
B16 | 6.86 ln median PBM intensity, better of two orientations

The binders below were run against AP2-I D3 (Plasmodium falciparum, UniProt Q8IJW6 910-1027) in the same assay as above. Conditions: tags: N-terminal GST (pGEX-4T-1), kept; label: surface-attached array probe.

Binder | binding signal
B1 | 7.19 ln median PBM intensity, better of two orientations
B2 | 7.02 ln median PBM intensity, better of two orientations
B3 | 7.02 ln median PBM intensity, better of two orientations
B4 | 7.12 ln median PBM intensity, better of two orientations
B5 | 7.28 ln median PBM intensity, better of two orientations
B6 | 7.12 ln median PBM intensity, better of two orientations
B7 | 6.76 ln median PBM intensity, better of two orientations
B8 | 7.02 ln median PBM intensity, better of two orientations
B9 | 7.06 ln median PBM intensity, better of two orientations
B10 | 7.06 ln median PBM intensity, better of two orientations
B11 | 7.14 ln median PBM intensity, better of two orientations
B12 | 7.28 ln median PBM intensity, better of two orientations
B13 | 7.28 ln median PBM intensity, better of two orientations
B14 | 7.16 ln median PBM intensity, better of two orientations
B15 | 7.19 ln median PBM intensity, better of two orientations
B16 | 7.11 ln median PBM intensity, better of two orientations

From PMC11417369, “DNA sequence and chromatin differentiate sequence-specific transcription factor binding in the human malaria parasite Plasmodium falciparum”
